Data on one substance can be found in PMC10745484.

This test addresses recombinant Fe-S cluster assembly ATP-binding protein (SufC) (Streptococcus pneumoniae strain D39). Description: SPR; Biacore X100; rSufC immobilised on a CM5 chip (1000 RU); plasminogen or BSA flowed at 6.25 to 100 nM, 25 °C, 100 mM HEPES pH 7.4, 150 mM NaCl, 3 mM EDTA, 0.005% surfactant P20; apparent constants.

Turning to “plasminogen from human plasma (natural protein)”, the Kd is 79.5 nM, the koff was 0.00156 s⁻¹ and the kon was 19600 M⁻¹ s⁻¹.

In general, koff refers to a measure of how fast the partners let go of each other. One may read the kon as a measure of how fast the partners come together.
